The values below come from patent US20110189209A1 (GOVERNMENT OF THE UNITED STATES OF AMERICA AS REPRESENTED …, published 2011).

The target of test [1] is human CD3 on Jurkat cells (human) (UniProt P07766). Put plainly: competitive binding on Jurkat cells, competitor at 1 nM, tracer 125I-UCHT1.
Test [2] has the same target. Put plainly: competitive binding on Jurkat cells, competitor at 100 nM, tracer 125I-UCHT1.
The target of test [3] is T1, monkey CD3 on HSC-F monkey T cells (cynomolgus monkey, UniProt Q95LI5 22-198).
T1 construct: whole, on cells; also called monkey CD3ε
Description: competition with FITC-labeled FN18 tracer (5x10^-9 M) for binding to HSC-F monkey T cells, flow cytometry, 4 C.

The target in test [4] is T1, monkey CD3 on HSC-F monkey T cells. Put plainly: competition with FN18-FITC on HSC-F cells, flow cytometry, replicate assays. On the technique in general: Flow cytometry measures light scatter and fluorescence of single cells or particles in a stream.

T1 sequence (Q95LI5 22-198): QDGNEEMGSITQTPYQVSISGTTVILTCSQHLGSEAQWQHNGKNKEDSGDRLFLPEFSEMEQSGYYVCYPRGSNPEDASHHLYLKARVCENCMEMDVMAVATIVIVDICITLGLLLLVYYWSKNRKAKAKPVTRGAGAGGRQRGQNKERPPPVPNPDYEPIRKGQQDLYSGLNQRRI

As for UCHT1 (antibody), the % of 125I-UCHT1 bound to Jurkat cells came out at 80% in test [1] and 0% in test [2].
In the same order, the values of “scUCHT1 (from UniProt P01871 106-453) (Fc fusion)” are 80% and 0%.

B1: scFv(C207) (scFv)
scFv: DFVMSQSPSSLAVSVGERVTMSCKSSQSLLYFSNRKNYLAWYQQKPGQSPKLLINWASTRESGVPDRFTGSGSRTDFTLTISSVKAEDLAVYFCQQFYSYPPTFGGGTKLEIKGGGGSGGGGSGGGGSQVQLQQSEAELARPGASVKMSCKASGYTFTDYTIHWLRQKPGQGLDWIGYFNPSSGSTEYNRKFKDRTILTADRSSTTVYMQLSSLTSEDSAVYYCARKGEKLLGNRYWYFDVWGAGTSVTVSS
B1: the “IC50 (read off the curve)” value in test [3] was roughly 2 nM.

B2: biscFv(C207) (other)
chain: DFVMSQSPSSLAVSVGERVTMSCKSSQSLLYFSNRKNYLAWYQQKPGQSPKLLINWASTRESGVPDRFTGSGSRTDFTLTISSVKAEDLAVYFCQQFYSYPPTFGGGTKLEIKGGGGSGGGGSGGGGSQVQLQQSEAELARPGASVKMSCKASGYTFTDYTIHWLRQKPGQGLDWIGYFNPSSGSTEYNRKFKDRTILTADRSSTTVYMQLSSLTSEDSAVYYCARKGEKLLGNRYWYFDVWGAGTSVTVSSGGGGSGGGGSGGGGSDFVMSQSPSSLAVSVGERVTMSCKSSQSLLYFSNRKNYLAWYQQKPGQSPKLLINWASTRESGVPDRFTGSGSRTDFTLTISSVKAEDLAVYFCQQFYSYPPTFGGGTKLEIKGGGGSGGGGSGGGGSQVQLQQSEAELARPGASVKMSCKASGYTFTDYTIHWLRQKPGQGLDWIGYFNPSSGSTEYNRKFKDRTILTADRSSTTVYMQLSSLTSEDSAVYYCARKGEKLLGNRYWYFDVWGAGTSVTVSS
For B2, in test [4], the “ratio of concentrations at equal displacement, biscFv(C207)/scFv(C207)” value stood at 2.5 fold.

B3: Db(C207) (other)
chain: DFVMSQSPSSLAVSVGERVTMSCKSSQSLLYFSNRKNYLAWYQQKPGQSPKLLINWASTRESGVPDRFTGSGSRTDFTLTISSVKAEDLAVYFCQQFYSYPPTFGGGTKLEIKGGGGSQVQLQQSEAELARPGASVKMSCKASGYTFTDYTIHWLRQKPGQGLDWIGYFNPSSGSTEYNRKFKDRTILTADRSSTTVYMQLSSLTSEDSAVYYCARKGEKLLGNRYWYFDVWGAGTSVTVSS
notes: also called diabody of C207; diabody (C207)
For B3, the “ratio of concentrations at equal displacement, Db(C207)/scFv(C207)” value in test [4] is 7 fold.
